B1: TPR 5TU (parent)
chain: GGAUCUUCUCGAUCUAACAAAAAAGACAAAUCUGCCACAAAGCUUGAGAGCAUCUUCGGAUGCAGAGGCGGCAGCCUUCGGUGGCGCGAUAGCGCCAACGUUCUCAACUAUGACACGCAAAACGCGUGCUCCGUUGAAUGGAGUUUAUCAUG

This sample holds only a part of the variants without activity.

Variants of B1 are the subject of this series. Briefly: polymerase ribozyme fitness, log enrichment relative to wild type (log ratio); higher = more active; in vitro selection for triplet polymerase activity. In a few lines: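 In triplicate, a single round of in vitro selection was run on each mutant library, PCR-built and transcribed, covering one subunit of a heterodimeric triplet polymerase ribozyme. Frozen incubation at −7 °C followed annealing with a biotinylated primer, partner subunit and triplets, and extended constructs were then gel-excised, streptavidin-captured and taken through RT-PCR. Fitness is the logarithm of genotype enrichment over wild-type enrichment, from inverse-variance-weighted replicate averages of Illumina-sequenced inputs and outputs. […] only genotypes with ≥10 input reads and ≥1 read per output were kept.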
Turning to GGAUGUUCUCGAUCUAACACAAAAGACAAAUAUGCCACAAAGCUUGAGACCAUCUUCGGAUGCAGAGGCGGCAGCCUUCGGUGGCGCGAUAGCGCCAACGUUCUCAACUAUGACACGCAAAACCCGUGCUCCGUUGAAUGCAGUUUAUCAUG, the “polymerase ribozyme fitness (log ratio)” value was no more than -4.2.
With GGAUGUUCUCGAUCUCACAAAAAAGACAAAUCUGCCACAAAGCUUGAGAGCAUCUUCGUAUGCAGAGGCGGCAGCCUUCGGUGGCGCGAUAGCGCAAACGUUCUCAACUAUGACACGCAAAACGCGUGCUCCGUUGAAUGGAGUUUAUCAUG the figure was -2.66.
As for GGAUACUCUCGAUCUAACAAAAAAGACAAUUCUGCCACAAAGCUUGAGAGCAUCUUCGGAUGCAGAGGCGGCAGCCUUCGGUGGCGCGAUUGCGCCAACGUUCUCAACUAUGACACGAAAAACGCGUGCUCCGUUGAGUGGAGUUUAUCAUG, the “polymerase ribozyme fitness (log ratio)” value was no more than -4.2.
With GGAUGUUCUCGAUCUAACAAAAGAGACAAAUCUGCCACAAAGCUUGAGAGCUUCUUCGGAUGCAGAGGCGGCAGCCUUCGGUGGCGGGAUAGCGCCAAAGUUCUCAACUAUGACACGCAAAACGCGUGCUCCGUUGAAUGGAGUUUAUCAUG the figure was no more than -4.2; with GGAUAUUCUCGAUCUAACAAAAAAGACAAAUCUGCCACAAAGCUUGAGAGCAUCUUCGGAUGCAGAGGCGGCAACCUUCGUUGGCGCGAUAGCGCCAACGUUCUCAACUAUGACACGCAAAACGCGUGCUCCGUUGAAGGGAGUUUAUCAUG, -3.53; with GGAUAUUCUCGAUCUAACAAAAAAGACAAAUCUGCCACAAAGCUUGAGAGCAUCUUCGGAUGCAGAGGCGGCAGCCUUCGGUGGCUCGAUAUCGCCAACGUUCUCAACUAUGACAGGCAAAACGCGUGCUCCGUUGAAUGGAGUUUAUCAUG, -0.979.
Take GGAUAUUCUCGAUCUAACAAAAAAGACAAAUCUGCCACAAAGCUUGAGAGCAUCAUCCGAUGCAGAGUCGGCAGCCUUCGAUGGCGCGAUUGCGCAAACGUUCUCAACUAUGACACGCAAAACGCGUGCUCCGUUGAAUGGAGUUUAUCAUG: the “polymerase ribozyme fitness (log ratio)” value is no more than -4.2.
Consider GGAUAUUCUCGAUCUAACAAAAAAGACAAAUCUGCCACAAAGCUUGAGAGCAUCUUCGGAUGCAGAGGCGGCAGCCUUCGGUGGCGCGAUAGUGCCAGCGUUAUCAACUAUGACACGCAAAACGCGUGCUCCGUUGAAUGGAGUUUAUCAUG, for which the “polymerase ribozyme fitness (log ratio)” value is -3.31.
For GGAUGUUCUCGAUCUAACAAAAACGACAAAUCUGCCACAAAGCUUGAAAGCCUCUUCGGAUGCAGAGGCGGCAGCCUUCGGUGGUGCGAUAGCGCCAACGUUCUCAACUAUGACACGCAAAACGCGUGCUCCGUUGAAUUGAGUUUAUCAUG, the “polymerase ribozyme fitness (log ratio)” value was no more than -4.2.
Regarding GGAUGUUCUCGAUCUAGCAAAAAAGACAAAUCUGCCACAAAGCUUGAGAGCAUCUUCGGAUGCAGAGGCGGCAGCCUUCGGUGGCGCGAUAGGGUCAACGUUCUCAACUAUGACACGCAAAACGCGUGCUCCGUUGAAUGGAGUUUAUCAUG, the “polymerase ribozyme fitness (log ratio)” value is -3.96.
In the case of GGAUAUUCUCGAUCUAACAAAAAAGACAAAUCUGCCACAAAGCUUGAGAGCAUCUUCGUAUGCAGAGGUGGCAGCCUUCGGUGGCGCGAUAGCUCCAGCGUGCUCAACUAUGACACGCAAAACGCGUGCUCCGUCGAAUGGAGUUUAUCAUG, the “polymerase ribozyme fitness (log ratio)” value was no more than -4.2.
With GGAUAUUCUCGAUCUAACAAAAAAGACAAAUCGGCCAUAAAGCUUGAGCGCAUCUUCGGAUGCAGACGCGGCAGCCUUCGGUGGCGCGAUACCGCCAACGUUCUCAACUAUGACACGCAAAACGCGUGCUCCGUUGAAUGGAGUUUAUCAUG the figure was no more than -4.2.
For the variant GGAUAUUCUCGAUCUAACAAAAAAGACAAAUCUGCCACAAACCUUGAGAGCAUCUUCGGAUGCAGAGGCGGCAGCCUUCGGUGCAACGAUACCGCCAACGUUCUCAACUAUGACACGCAAAACGCGUGCUCCGUUGAAUGGAGUUUAUCAUG, the “polymerase ribozyme fitness (log ratio)” value is no more than -4.2.
For GGAUAUUCUCGAUCUAACAAAAAAGACAAAUCUGCCACAAAACUUGAGAGCAUCUUCGGAUGCAGAGGCGGCAGCCUUCGGUGGCGCGAUAGCGCCGACGGUGUCAACUGUGACACGCAAAACGCGUGCUCCGUUGAAUUGAGUUUAUCAUG, the “polymerase ribozyme fitness (log ratio)” value is -3.6.
Regarding GGAUGUUCUCGAUCUAACAUAAAAGACAAAUCGGCCACCAAGCUUGAGAGCAUCGUAGGAUGCAGAGGCGGCAGCCUUCGGUGGCGCGAUGGCGCCAACGUUCUCAACUAUGACACGCAAAACGCGUGCUCCGUUGACUGGAGUUUAUCAUG, the “polymerase ribozyme fitness (log ratio)” value was no more than -4.2.
With GGAUGUUCUCGAUCUAACAAAAAAGACAUAUCUGCCACAAAGCUUGAGAGCAUCGUCGGAUGCAGAGGCGGCAGCCUACGGUGGCGCGAUACCGCCAACGUUCUCAACUAUGACACGUAAAACGCGUGCUCCGUUGAAUGGAGUAUAUCAUG the figure was no more than -4.2.
As for GGAUGUUCUCGAUCUAUCAAAAAAGACAAAUCUGCCACAAAGCUUGAGAGCAUCUUCGGAUGCAGAGGCGGCAACCUUCGGUGGCGCGAUGGCGCCAACGUUCUCAACUAUGACACGCAAAACGCGUGCUCCGUUGAAUGUAGUUUAUCAUG, the “polymerase ribozyme fitness (log ratio)” value is no more than -4.2.
Regarding GGAUAUUCUCGAGCUAACAAAAAAGAAAAAUCUGCAACAAAGCUUGAGAGUAUCUUCGGAUGCAGAGGCGGCAGCCUUCGGUGGCGAGAUAGCGCCAACGUUCUCAACUAUGACACGCAAAACGCGUGCUCCGUUGAAUGGAGUUUAUCAUG, the “polymerase ribozyme fitness (log ratio)” value was no more than -4.2.
Consider GGAUAUUCUCGAUCUAACAAAAAAGACAAAUCUGCCACAAAGCUUGAGAGCAUCUUCGGAUGCAGAGGCGGCAGCCUUCGGUGGCUCGAUAGCGCCAACGUUCUCAACUAUGACACGCAAAACGCGUGCUCCGUUGAAUGAAGUUUAUCAUG, for which the “polymerase ribozyme fitness (log ratio)” value is -1.49.

The record behind these values is the RNAGym collection of RNA variant scans (doi:10.1073/pnas.2313332121).
